In this experiment the target is T1, human α4β1 integrin (human, UniProt P13612 34-1032; P05556 21-798).
T1 construct: whole, on cells; In the ELISA it is on transformed L cells; In the adhesion assays it is on human U937 monocytic cells and human Jurkat T cells; also called VLA-4; alpha-4-beta-1 integrin
Kind of experiment: cell ELISA of crude Cos supernatants on L cells expressing α4β1 integrin. On the technique in general: ELISA stands for enzyme-linked immunosorbent assay.

Procedure: Briefly, L cells transformed to express a4β1 integrin on their cell surface were plated out and grown to confluence in 96-well tissue culture plates. The samples to be tested (either crude supernatants or protein-A-purified) were serially diluted and added to each well. After incubation for 1 h on ice and very gentle washing, goat anti-mouse or anti-human (gamma-chain specific) peroxidase conjugates (Sigma) were added. After a further 1 h incubation on ice and very gentle washing, the substrate (o-phenylenediamine dihydrochloride, Sigma) was added. After incubation for 30 min at room temperature, the reaction was stopped by adding 1 M H₂SO₄, and the A₄₉₀ was measured.

B1: reshaped human 21.6 antibody (La+Ha) (antibody, human IgG1, V domains shown)
VH: QVQLVQSGAEVKKPGASVKVSCKASGFNIKDTYIHWVRQAPGQRLEWMGRIDPANGYTKYDPKFQGRVTITADTSASTAYMELSSLRSEDTAVYYCAREGYYGNYGVYAMDYWGQGTLVTVSS
VL: DIQMTQSPSSLSASVGDRVTITCKTSQDINKYMAWYQQTPGKAPRLLIHYTSALQPGIPSRFSGSGSGRDYTFTISSLQPEDIATYYCLQYDNLWTFGQGTKVEIK
notes: Human IgG1 kappa, expressed in Cos cells; not shown: human gamma-1 heavy chain constant region; human kappa light chain constant region
Turning to B1, the binding result is on record as “binds”.

Source of the values: patent US20150064177A1 (ELAN PHARMACEUTICALS, published 2015).
